Reference: the RNAGym collection of RNA variant scans (doi:10.1073/pnas.2313332121)

B1: TPR t1 (parent)
chain: GACCAAUCUGCCCUCAGAGCUCGAGAACAUCUUCGGAUGCAGAGGAGGCAGGCUUCGGUGGCGCGAUAGCGCCAACGUCCUCAACCUCCAAUGCAUCCCACCACAUGAUGAUGCCUGAAGAGCCUUGGUUUUUUG

Variants of: B1
Experiment: polymerase ribozyme fitness, log enrichment relative to wild type (log ratio); higher = more active; in vitro selection for triplet polymerase activity
Outline: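 Libraries of mutants in each subunit of a heterodimeric triplet polymerase ribozyme were generated by PCR and transcribed. In triplicate, each went through one in vitro selection round: annealing with biotinylated primer, partner subunit and triplets; frozen incubation at −7 °C; gel excision of extended constructs; streptavidin-bead capture; RT-PCR. Fitness, taken from Illumina sequencing of input and output libraries, is the logarithm of a genotype's enrichment over wild-type enrichment, averaged across replicates with inverse-variance weights. The logarithm is base 2, and genotypes needed ≥10 input reads and ≥1 read per output to be kept.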

Variant	polymerase ribozyme fitness (log ratio)
C114U G120U	-2.8
C114A C123U G128U	-4.41
U112G U133G	-0.442
C114G G120U	-3.34
G110U G117A	-2.69
G110U G117U	-4.2
U112C G128U	-0.242
C114U C124G	-0.85
A111U U116C	-4.01
G113A A121G	-0.104
U112A G128U U131C	1.17
A111G U133G	-0.431
G113U G127C	-1.61
G113U G127U	-4.46
G113C C115A	-4.21
A111C C115A	-3.19
C114U G127U	-3.69
C114U G117U	-5.77
C115U G120A U131A	-2.07
C114A G117C	-4.77
A111C C114A	-2.98
G113A C114G	-1.96
G110C U125A	-5.11
U112A U126C	0.739

Variant	polymerase ribozyme fitness (log ratio)
U112A U126G	0.0604
C114U G117C U133A	-5.74
U112G C115A U126G	-2.63
G113U G122C C123A	-2.42
G113A G117A	-4.4
G113C U116G C124A	-5.98
C115U G117C	-3.48
G110U G122A	-2.47
G110U G122U	-2.07
G113U G128U	-4.72
G113U G128C	-4.63
G113U G128A	-3.35
C114G G128A U130A	-5.53
A111G U130G	-0.2
A111G U112A	-2.9
G113C U116G	-3.72
G113C U116A	-4.45
A111G C115U	-2.28
U112A G122U U129C	0.27
C114G C124A G135A	-0.373
A111C U112A C123G	-0.191
C114A G127U	-3.82
G113C C124G	-1.33
C114U A118U	-3.68

Variant	polymerase ribozyme fitness (log ratio)
G113A U125A	-1.24
C114U C123A	-1.94
A111G G117A	-1.65
A111G G117U	-4.12
C115G G117C	-5.84
G110U G120C G127A G128U	-4.38
C115A C123G	1.01
C115A U116A	-2.84
A111G A121C	0.741
U112A C114G	-0.0146
A111C A121C	-0.386
G113U G135U	-3.24
C114A G117U C124U	-6.08
C114G U126G	-4.32
G110U A118G	-1.01
G113C U125A	-3.4
A111U U132A	-2.14
C115G G135U	-2.97
G113U G117A	-5.13
G110C U130G	-6.34
U112A C115G	-0.927
G113U U131C	-3.4
C114A C115G G122C G127U	-5.32
A111C A119U U125A	-4.12

Variant	polymerase ribozyme fitness (log ratio)
U112A A119C	-1.25
U112A C124U	1.1
G110C U131C G135A	-2.51
G113C U129A	-3.5
C115G G117A G135A	-3.04
G110U C115A U129C	-3.17
G113C G135U	-4.15
G113U G122C	-2.73
G113A C123G U129A	-1.16
U112G A121U	0.924
U112C G120C	0.72
G110U A119U	-1.65
U112C C124U	1.58
C115A U133A	0.127
C115G C124U	-1.13
C115G A119G	1.52
G110U U112G	-4.22
G110U U112A	-2.85
A111C G113A	-3.44
G113U C124U	-2.48
C115A G135U	-0.547
C114U U133G	-0.517
G113A U126C	-0.83
C115U A118C	-2.16

Variant	polymerase ribozyme fitness (log ratio)
U112G G128U	-2.4
G113C C123A	-2.82
C115G U133G	-0.9
G113U G120C G128U	-4.07
G113A U129G	-1.7
G113U U132A	-2.22
G113A G120C	-1.02
U112G G122A	-1.74
G110U A111G G113C	-2.46
G113A C124U	-0.971
G113A C124G	-0.302
G113A C124A	-1.44
C114G G117A G135U	-6.72
G113A C123G	-0.469
A111U G113A U130G	-5.85
G113A U132C	-1.76
G113U C123U	-3.05
G113U C123G	-1.81
C114G U130A	-2.22
U112C G135U	-0.0479
A111G U116G C124A U131G	-1.23
U112C U125A	1.63
C114A G135U	-1.88
A111U A121C U126A U130G	-2.89

Variant	polymerase ribozyme fitness (log ratio)
U112A G113U	-0.351
G113U G120C	-1.71
C115A A119G	-0.948
U112C C124U G128U	-0.524
G110U G120A	-2.47
G110U U116A	-3.44
U112G C123U	0.561
U112G C123G	0.429
A111C G128A	-1.07
C114U A121U	-1.32
U112G U130C	0.265
C114A A119G	0.218
C114A A119G C124G	0.223
C114U U132A	-1.1
C114U A119C	-6.28
G113A G128U	-2.37
C115A G122U U132C	-0.273
G113C U116G U130G	-5.3
C115A A118U U131A	-1.85
A111U A121U U129A G135C	-2.04
A111C U129G	-0.988
C114U U130A	-2.7
U112A C123G	0.872
U112A C123U	1.03

Variant	polymerase ribozyme fitness (log ratio)
G110U	-1.08
U112C G127A	0.907
C115U C124U	-1.17
G110U G127A	-2.05
G110U G127U	-1.57
G110U U133C	0.02
A111U G120U	-4.5
A111U G120A	-3.85
C114G U130G U133A	-2.19
A111C U112A	-1.52
G110C U132A	-3.46
C115A U125G	0.221
U112A U133G	1.43
U112A U133A	1.53
G113A U116A	-4.71
C114G C123A	-1.74
C114G C123U	-4.31
A111C G117A	-2
C115A A118G	-0.852
U112C C124A G128A	0.254
G113U C114G	-2.89
A111C A119C G127U	-2.96
C114A U133G	-1.84
